The results in this text go back to article PMC4191429, “Interactions of the yeast mitochondrial RNA polymerase with the +1 and +2 promoter bases dictate transcription initiation efficiency”.

Common to all, as to settings: protein: recombinant;recombinant; tags: Ni2+ column purified; copies: 1;1; label: 2-aminopurine
The target of series [1] is T1, Rpo41 (mitochondrial RNA polymerase);Mtf1 (mitochondrial transcription initiation factor) (Saccharomyces cerevisiae;Saccharomyces …, UniProt P13433;P14908 1-1351;2-341, |). Nature of the series: 2-aminopurine fluorescence; ATP+GTP; 2-AP assay buffer, salt, pH and temperature not in the material (transcription assays at 25 C).
T1 sequence (P13433 whole entry, chain 1 of 2): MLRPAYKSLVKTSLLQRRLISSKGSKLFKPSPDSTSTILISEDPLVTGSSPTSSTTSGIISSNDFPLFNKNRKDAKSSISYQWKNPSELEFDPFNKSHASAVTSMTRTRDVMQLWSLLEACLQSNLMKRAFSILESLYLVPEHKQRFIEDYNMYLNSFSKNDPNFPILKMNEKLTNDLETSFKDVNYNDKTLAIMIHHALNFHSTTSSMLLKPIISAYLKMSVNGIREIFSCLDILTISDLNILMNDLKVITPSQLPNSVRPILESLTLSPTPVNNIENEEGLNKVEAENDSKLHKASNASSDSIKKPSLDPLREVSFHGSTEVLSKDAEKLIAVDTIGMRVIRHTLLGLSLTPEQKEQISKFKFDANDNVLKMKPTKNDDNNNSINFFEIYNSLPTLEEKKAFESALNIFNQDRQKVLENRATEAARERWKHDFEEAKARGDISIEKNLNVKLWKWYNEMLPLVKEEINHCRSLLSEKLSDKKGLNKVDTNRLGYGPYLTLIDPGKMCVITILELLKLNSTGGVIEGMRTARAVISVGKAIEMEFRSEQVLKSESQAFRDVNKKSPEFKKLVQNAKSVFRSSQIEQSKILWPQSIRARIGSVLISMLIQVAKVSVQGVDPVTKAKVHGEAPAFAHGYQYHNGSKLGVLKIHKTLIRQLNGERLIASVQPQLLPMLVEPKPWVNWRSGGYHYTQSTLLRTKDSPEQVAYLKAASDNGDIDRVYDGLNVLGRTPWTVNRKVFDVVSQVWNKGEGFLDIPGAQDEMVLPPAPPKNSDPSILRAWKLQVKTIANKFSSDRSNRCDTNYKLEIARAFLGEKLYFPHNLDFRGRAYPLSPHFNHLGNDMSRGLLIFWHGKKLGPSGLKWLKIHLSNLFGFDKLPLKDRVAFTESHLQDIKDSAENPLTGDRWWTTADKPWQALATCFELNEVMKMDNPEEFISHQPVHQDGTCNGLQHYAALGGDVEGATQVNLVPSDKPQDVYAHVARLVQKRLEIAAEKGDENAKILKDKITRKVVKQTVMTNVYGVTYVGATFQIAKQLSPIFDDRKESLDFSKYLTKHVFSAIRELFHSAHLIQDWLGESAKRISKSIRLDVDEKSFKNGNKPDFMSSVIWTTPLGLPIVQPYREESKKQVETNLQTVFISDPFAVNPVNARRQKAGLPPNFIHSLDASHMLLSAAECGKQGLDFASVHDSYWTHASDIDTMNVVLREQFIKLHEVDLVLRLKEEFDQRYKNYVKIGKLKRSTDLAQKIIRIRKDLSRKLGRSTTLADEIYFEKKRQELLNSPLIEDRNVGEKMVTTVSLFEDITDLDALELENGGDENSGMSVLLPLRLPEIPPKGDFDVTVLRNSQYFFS
T1 sequence (P14908 2-341, chain 2 of 2): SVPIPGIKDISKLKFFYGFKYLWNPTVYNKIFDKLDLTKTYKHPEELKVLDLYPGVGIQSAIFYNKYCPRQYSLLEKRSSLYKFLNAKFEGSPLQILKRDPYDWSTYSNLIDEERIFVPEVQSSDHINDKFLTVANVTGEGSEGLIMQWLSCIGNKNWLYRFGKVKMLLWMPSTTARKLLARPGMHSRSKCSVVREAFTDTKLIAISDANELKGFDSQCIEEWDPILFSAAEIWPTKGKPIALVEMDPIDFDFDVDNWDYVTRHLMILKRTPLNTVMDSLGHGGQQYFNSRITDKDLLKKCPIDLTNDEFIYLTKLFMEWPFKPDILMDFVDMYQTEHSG
The target of series [2] is T1, Rpo41 (mitochondrial RNA …). In words: 2-aminopurine fluorescence; no NTP; 2-AP assay buffer, salt, pH and temperature not in the material (transcription assays at 25 C).
Series [3] has the same target. Nature of the series: 2-aminopurine fluorescence; ATP; 2-AP assay buffer, salt, pH and temperature not in the material (transcription assays at 25 C).

B1: 21S rRNA promoter (+1+2 AG), 2-AP at -1 template (dsDNA)
DNA 1: TATTATTATTATTATATATATAAGTAGTAAAAAGTAGAATAATCT
DNA 2: AGATTATTCTACTTTTTACTACTTATATATATAATAATAATAATA
modifications: 2-aminopurine at -1 template
B1: the values for the binding signal in series [1] and in series [2] were ~4 further fold 2-AP fluorescence increase over the complex without NTP and ~5 fold 2-AP fluorescence increase, respectively.

B2: 15S rRNA promoter (+1+2 AA), 2-AP at -1 template (dsDNA)
DNA 1: ATAATTTATTTATTATTATATAAGTAATAAATAATAGTTTTATCT
DNA 2: AGATAAAACTATTATTTATTACTTATATAATAATAAATAAATTAT
modifications: 2-aminopurine at -1 template
On to B2, for which the results for the binding signal in series [3] and in series [2] were ~4 further fold 2-AP fluorescence increase over the complex without NTP and ~5 fold 2-AP fluorescence increase, respectively.
